This note sets out measurements from US9238830.

Data set [1] has as its system N. meningitidis MC58 pilin (PilE, expression product of pilE, Accession No. AAF40497).
For data set [2], the system named is PilE N60A variant of N. meningitidis MC58 pilin (pPilEN60A).
In data set [3] the test system is PilE N61A variant of N. meningitidis MC58 pilin (pPilEN61A).
The test system of data set [4] is PilE S63A variant of N. meningitidis MC58 pilin (pPilES63A).
The test system of data set [5] is PilE T62A variant of N. meningitidis MC58 pilin (pPilET62A).

As for “PglL oligosaccharyltransferase of N. meningitidis MC58 (Accession No. AAF41024), His10-tagged (pAMF5)”, in data set [1], the “glycosylation of pilin in E. coli CLM24 (western blot, band shift)” value was “an extra band of slower electrophoretic mobility was detected with both a monoclonal anti-pilin antiserum and the C. jejuni glycan-specific R12 antiserum”. Besides, the “transfer of O7 polysaccharide to PilE (western blot)” value was “mutation of N60, N61 and T62 do not affect glycosylation” in data set [2]; “mutation of N60, N61 and T62 do not affect glycosylation” in data set [3]; “mutation S63A completely abolishes transfer of the polysaccharide to PilE” in data set [4]; “mutation of N60, N61 and T62 do not affect glycosylation” in data set [5].
